Data taken from patent US20260022160A1 (AFFYXELL THERAPEUTICS, published 2026).

B1: stefin A protein variant clone 247 (designed binder)
chain: MIPGGLSEAKPATPEIQEIVDKVKPQLEEKTGETYGKLEAVQYKTQVVHHAYAAVYVGTNYYIKVRAGDNKYMHLKVFKSLPYWYRKYPDEDLVLTGYQVDKNKDDELTGF
B2: stefin A protein variant clone 230 (designed binder)
chain: MIPGGLSEAKPATPEIQEIVDKVKPQLEEKTGETYGKLEAVQYKTQVVHYYVHYNDQGTNYYIKVRAGDNKYMHLKVFKSLWGENLFAKWEDLVLTGYQVDKNKDDELTGF
B3: clone-230 DS (tetramer with a rigid linker) (designed binder)
chain: IPGGLSEAKPATPEIQEIVDKVKPQLEEKTGETYGKLEAVQYKTQVVHYYVHYNDQGTNYYIKVRAGDNKYMHLKVFKSLWGENLFAKWEDLVLTGYQVDKNKDDELTGFAEAAAKEAAAKEAAAKEAAAKEAAAKEAAAKMIPGGLSEAKPATPEIQEIVDKVKPQLEEKTGETYGKLEAVQYKTQVVHYYVHYNDQGTNYYIKVRAGDNKYMHLKVFKSLWGENLFAKWEDLVLTGYQVDKNKDDELTGFAEAAAKEAAAKEAAAKEAAAKEAAAKEAAAKMIPGGLSEAKPATPEIQEIVDKVKPQLEEKTGETYGKLEAVQYKTQVVHYYVHYNDQGTNYYIKVRAGDNKYMHLKVFKSLWGENLFAKWEDLVLTGYQVDKNKDDELTGFAEAAAKEAAAKEAAAKEAAAKEAAAKEAAAKMIPGGLSEAKPATPEIQEIVDKVKPQLEEKTGETYGKLEAVQYKTQVVHYYVHYNDQGTNYYIKVRAGDNKYMHLKVFKSLWGENLFAKWEDLVLTGYQVDKNKDDELTGF
B4: clone-230 DT (trimer with a rigid linker) (designed binder)
chain: IPGGLSEAKPATPEIQEIVDKVKPQLEEKTGETYGKLEAVQYKTQVVHYYVHYNDQGTNYYIKVRAGDNKYMHLKVFKSLWGENLFAKWEDLVLTGYQVDKNKDDELTGFAEAAAKEAAAKEAAAKEAAAKEAAAKEAAAKMIPGGLSEAKPATPEIQEIVDKVKPQLEEKTGETYGKLEAVQYKTQVVHYYVHYNDQGTNYYIKVRAGDNKYMHLKVFKSLWGENLFAKWEDLVLTGYQVDKNKDDELTGFAEAAAKEAAAKEAAAKEAAAKEAAAKEAAAKMIPGGLSEAKPATPEIQEIVDKVKPQLEEKTGETYGKLEAVQYKTQVVHYYVHYNDQGTNYYIKVRAGDNKYMHLKVFKSLWGENLFAKWEDLVLTGYQVDKNKDDELTGF
B5: stefin A protein variant clone 233 (designed binder)
chain: MIPGGLSEAKPATPEIQEIVDKVKPQLEEKTGETYGKLEAVQYKTQVVLQDQWPWRDGTNYYIKVRAGDNKYMHLKVFKSLTYGKKWYSWEDLVLTGYQVDKNKDDELTGF
B6: stefin A protein variant clone 244 (designed binder)
chain: MIPGGLSEAKPATPEIQEIVDKVKPQLEEKTGETYGKLEAVQYKTQVVRENWYGEFAGTNYYIKVRAGDNKYMHLKVFKSLLYIYRHPNYEDLVLTGYQVDKNKDDELTGF
B7: stefin A protein variant clone 243 (designed binder)
chain: MIPGGLSEAKPATPEIQEIVDKVKPQLEEKTGETYGKLEAVQYKTQVVFTYQISYTVGTNYYIKVRAGDNKYMHLKVFKSLRWRYPARKPEDLVLTGYQVDKNKDDELTGF
B8: stefin A protein variant clone 227 (designed binder)
chain: MIPGGLSEAKPATPEIQEIVDKVKPQLEEKTGETYGKLEAVQYKTQVVHDVFYDQKAGTNYYIKVRAGDNKYMHLKVFKSLKWWYRIGNPEDLVLTGYQVDKNKDDELTGF
B9: stefin A protein variant clone 261 (designed binder)
chain: MIPGGLSEAKPATPEIQEIVDKVKPQLEEKTGETYGKLEAVQYKTQVVVDQVWSENAGTNYYIKVRAGDNKYMHLKVFKSLPYLWRKHAVEDLVLTGYQVDKNKDDELTGF
B10: stefin A protein variant clone 229 (designed binder)
chain: MIPGGLSEAKPATPEIQEIVDKVKPQLEEKTGETYGKLEAVQYKTQVVQYKIITWWSGTNYYIKVRAGDNKYMHLKVFKSLVYKNKRGGHEDLVLTGYQVDKNKDDELTGF
B11: stefin A protein variant clone 231 (designed binder)
chain: MIPGGLSEAKPATPEIQEIVDKVKPQLEEKTGETYGKLEAVQYKTQVVYYQIITWWQGTNYYIKVRAGDNKYMHLKVFKSLGIRKKQQQREDLVLTGYQVDKNKDDELTGF
B12: stefin A protein variant clone 246 (designed binder)
chain: MIPGGLSEAKPATPEIQEIVDKVKPQLEEKTGETYGKLEAVQYKTQVVHIPALKVHAGTNYYIKVRAGDNKYMHLKVFKSLPYWYRHDQEEDLVLTGYQVDKNKDDELTGF
B13: stefin A protein variant clone 248 (designed binder)
chain: MIPGGLSEAKPATPEIQEIVDKVKPQLEEKTGETYGKLEAVQYKTQVVYDELYHEKAGTNYYIKVRAGDNKYMHLKVFKSLEYKFRNLEEDLVLTGYQVDKNKDDELTGF
B14: stefin A protein variant clone 270 (designed binder)
chain: MIPGGLSEAKPATPEIQEIVDKVKPQLEEKTGETYGKLEAVQYKTQVVLDGLYHVNSGTNYYIKVRAGDNKYMHLKVFKSLFYYYRSEPTEDLVLTGYQVDKNKDDELTGF

biological target: T1, human CD40L (human, UniProt P29965 113-261, limits assumed); assay: cell-based or functional assay
T1 sequence (looked up): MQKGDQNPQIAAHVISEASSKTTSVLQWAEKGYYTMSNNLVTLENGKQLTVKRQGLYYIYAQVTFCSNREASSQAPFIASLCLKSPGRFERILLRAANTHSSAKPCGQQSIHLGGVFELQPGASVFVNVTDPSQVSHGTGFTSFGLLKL

Row | EC50 (HEK-Blue CD40 reporter cells, SEAP, OD 640 nm, hCD40L 0.8 nM) [nM] | Binder
1 | 101 | B1
2 | 11.6 | B2

biological target: T1, human CD40L; assay: cell-based or functional assay; remark: another data set of the same source

Row | EC50 (HEK-Blue cell-based assay, % inhibition) [nM] | Binder
3 | 1190 | B1
4 | 608 | B2

biological target: T1, human CD40L; assay: cell-based or functional assay; remark: another data set of the same source

Row | IC50 (read off the curve) [nM] | Binder
5 | ~0.6 | B3
6 | ~2 | B4

biological target: T1, human CD40L; assay: BIACORE (SPR) on hCD40L, kinetic fit; immobilised partner not stated

Row | Kd [nM] | koff [s⁻¹] | kon [M⁻¹ s⁻¹] | Binder
7 | 3.74 | 0.00207 | 553000 | B1
8 | 8.15 | 0.000975 | 120000 | B2

biological target: T1, human CD40L; assay: direct binding ELISA on plate-coated hCD40L (5 ug/ml), detection biotinylated anti-cystatin A antibody + polyHRP-streptavidin, OD 450-630 nm
Description: Plates were washed 2 times with 150 μl of washing buffer (PBS, Tween 20 0.1%) with a plate washer and saturated with Casein 5% (Sigma) in PBS for 90 minutes at room temperature (25±1° C.). For binding, each DAW01 clone and rhCD40 Fc were added to the plate, starting from 1 μM, 1 in 3 and 300 nM, 1 in 3 respectively. Plates were washed 3 times as described previously. […] Then, cystatin A biotinylated polyclonal antibody (BAF1407) was diluted to a concentration of 0.05 μg/ml in dilution buffer (PBS, 1% casein, 0.01% Tween 20) and the plate was incubated for 90 minutes at room temperature (25±1° C.). PolyHRP-streptavidin was then diluted in dilution buffer and the plates were incubated for 90 minutes at room temperature (25±1° C.). The plates were then washed 3 times as described previously, and the substrate (TMB, Pierce Thermo-Scientific) was added to the plates for 10 minutes. The reaction was stopped using an acidic solution, and plates were read at 450-630 nm.

Row | EC50 [nM] | Binder
9 | 3.07 | B5
10 | 45.6 | B6
11 | 57.5 | B7
12 | 0.67 | B2
13 | 12.4 | B8
14 | 26.4 | B9
15 | 15.3 | B10
16 | 6.12 | B11
17 | 17.3 | B12

biological target: T2, human CD40L expressed on HEK293 cells (human, UniProt P29965 1-261); assay: flow cytometry, clone at 1 uM on hCD40L-HEK293 cells (hatched), HEK-293 negative cells as control (open), detection anti-Cystatin A + A488 anti-goat
T2 construct: whole, on cells; also called hCD40L-HEK293 cells; hCD40L-HEK-293 cells (Crown Biosciences, C2041)
T2 sequence (looked up): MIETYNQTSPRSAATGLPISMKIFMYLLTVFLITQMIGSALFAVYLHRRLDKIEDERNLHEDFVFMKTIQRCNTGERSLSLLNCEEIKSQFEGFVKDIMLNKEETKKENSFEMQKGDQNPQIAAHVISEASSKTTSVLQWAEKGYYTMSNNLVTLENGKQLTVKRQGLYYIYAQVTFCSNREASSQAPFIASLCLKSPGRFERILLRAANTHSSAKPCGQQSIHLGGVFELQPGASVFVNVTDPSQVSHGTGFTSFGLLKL
Description: The cells were resuspended in PBS and 200,000 cells per well were dispatched in a round bottom 96 well plate. Cells were washed with PBS. The stefin A protein variant and controls were diluted in staining buffer containing 1% BSA, 0.01% Sodium Azide (NaN3), 2 mM EDTA in DPBS in duplicate and added on cells for staining for approximately 60 min at 4±1° c. Cells were washed and the secondary anti-Cystatin A (R&D, AF1407) was diluted 0.2 mg/ml in staining buffer and added on cells for staining for approximately 45 min at 4±1° c. Cells were washed again and the detection antibody A488 anti-goat (ThermoFisher, A21467) was diluted 1:500 in staining buffer and added to the cells for staining (approximately 30 min at 4±1° C.). Finally, the cells were washed and live and dead cells were stained using L/D stain Zombie Yellow (Biolegend, 423103) diluted in staining buffer for 10 min at 4±1° C. Cells were washed again and fixation buffer (R&D) was added to each well for 10 min at 4±1° C. then PBS with EDTA (Lonza) was added prior reading the plate on the flow cytometer (Guava 12 HT, Millipore). Dead cells were excluded, and the fluorescent green channel (488 nm/525/30) was acquired. Results were analyzed using Incyte and data were plotted using GraphPad.

Row | % Positive [%] | MFI [MFI] | Binder
18 | 98.1 | 9620 | B13
19 | 98.8 | 9890 | B1
20 | 98.3 | 4400 | B7
21 | 98.8 | 8990 | B2
22 | 98.4 | 8540 | B14
23 | 97.9 | 7050 | B9

biological target: T1, human CD40L; assay: competitive ELISA: hCD40L (1 nM) premixed with the binder and added to plate-coated rhCD40 Fc; bound hCD40L detected with biotinylated anti-hCD40L polyclonal antibody
Description: To evaluate the avidity of the different formats, a CD40L competitive ELISA was performed. Briefly, the plates were coated with rhCD40 Fc at 1 μg/ml and incubated overnight at 4° C. The plates were washed twice with 150 μl of washing buffer (PBS, Tween 20 0.1%) with a plate washer and saturated with Casein 5% (Sigma) in PBS for 90 minutes at room temperature (25±1° C.). […] The resulting solution was then mixed and added to the plates. The plates were washed 3 times as described previously. […] The plates were incubated for 90 minutes at room temperature (25±1° C.). The plates were then washed. PolyHRP-Streptavidin was then diluted in dilution buffer and added to the plates. The plates were incubated an additional 90 minutes at room temperature (25±1° C.). Plates were washed 3 times as described previously and the substrate (TMB, Pierce Thermo-Scientific) was added in the plate for 10 minutes. The reaction was stopped using an acidic solution and the plates were read at 450-630 nm and the resulting percent inhibition was calculated.

Row | IC50 (read off the curve) [nM] | Binder
24 | ~2 | B3
25 | ~4 | B4
